Results taken from US6716624B2, “GSK3 polypeptides” (Chiron Corporation, priority 2000, dated 2004).

Assays:
[1] = Concentration of the protein stock (solubility of the construct); format: physicochemical; details: concentrated protein stock
Experimental: The GSK3 constructs of the invention are capable of crystallization. […] Potential to crystallize is measured using a variety of assays including specific activity, aggregation, microheterogeneity. (See, for example, Table 1). These parameters are indicative of the purity of the preparation and of the solubility of the construct. The specific activity is also a preferred assay for detecting binding of an inhibitor to the correct binding site of the GSK3 construct. Another suitable method is fluorescence polarization. Briefly, a putative inhibitor, with an attached fluorophore, tumbles freely in solution. Thus when the fluorophore is excited by polarized light, the emitted light which is produced after a finite delay now has random polarity and the emitted light is no longer polarized. In the presence of a GSK3 construct with an intact inhibitor binding site, the tumbling rate is slowed sufficiently to ensure that, even though the light emission is delayed with respect to the excitation, the fluorophore has only moved very slightly. Thus, the excited light maintains polarization. A measurement of fluorescence polarization therefore indicates whether or not the GSK3 construct is suitable for identifying and optimizing an inhibitor. […] GSK3 constructs may not retain kinase activity, but their inhibitor binding can still be assessed using fluorescence polarization assays. […]

[2] = Aggregation of the purified construct on storage; format: physicochemical
Experimental: The GSK3 constructs of the invention are capable of crystallization. […] Potential to crystallize is measured using a variety of assays including specific activity, aggregation, microheterogeneity. (See, for example, Table 1). These parameters are indicative of the purity of the preparation and of the solubility of the construct. The specific activity is also a preferred assay for detecting binding of an inhibitor to the correct binding site of the GSK3 construct. Another suitable method is fluorescence polarization. Briefly, a putative inhibitor, with an attached fluorophore, tumbles freely in solution. Thus when the fluorophore is excited by polarized light, the emitted light which is produced after a finite delay now has random polarity and the emitted light is no longer polarized. […] A measurement of fluorescence polarization therefore indicates whether or not the GSK3 construct is suitable for identifying and optimizing an inhibitor. […] GSK3 constructs may not retain kinase activity, but their inhibitor binding can still be assessed using fluorescence polarization assays.
A truncated GSK3 polypeptide of the invention can be selected on the basis of one or more parameters. […] The potential of a polypeptide to form crystals can be evaluated on the basis of specific activity, purity, homogeneity, mass spectrometry, aggregation, and dynamic light scattering. […]

[3] = test system: prephosphorylated SGSG-linked CREB peptide; experiment: Kinase specific activity of truncated GSK3β polypeptides (P81 filter assay); format: biochemical; details: 5.9 μM CREB peptide, 25 μM ATP, 20 min at room temperature
Experimental: A reaction mixture was prepared containing 5.9 μM prephosphorylated SGSG-linked CREB peptide (Wang et al., Anal. Biochem., 220:397-402 (1994))μ in reaction buffer (5 mM Tris, pH 7.5, 5 mM DTT; 1 mM MgCl2, 0.01% BSA) containing the desired amount of truncated GSK3 polypeptide. ATP was added (specific activity 5.3 Ci/mmol) to 25 μM final concentration and the mixture was incubated for 20 min. at room temperature. The reaction was stopped by transferring 30 μl onto a P81 filter disc (Whatman). The disc was washed four times in 150 ml of 75 mM H3PO4 for 5 minute each. The filter was air dried and counted under 5 ml scintillation fluid. The specific activity was counted by determining the ratio of counts (in cpm) by the mass of GSK3 in the reaction (in μg).

Question: Which results are given for “Construct 557: Truncated human GSK3β, M1 to I384, with N-terminal Glu-tag and Gly linker (SEQ ID NO:2)”?
Answer: Concentration [1]: 12700 µg/mL; Aggregation at 4 Degrees ([2]; 4 degrees, > 2 weeks): none @ > 2; Aggregation at RT ([2]; room temperature, time at which aggregation occurs): overnight; Mean Specific Activity ([3]; mean of N assays): 4.3 × 10^7 cpm/μg; specific activity ([3]; stated in the text): 4.3×10^7 cpm/μg
